# Assay results reported in US20260209320A1 (ALCHEMAB THERAPEUTICS, published 2026).
# T1: Peptide 4 (human, cyno)
# T1 peptide: QQQQQPPPPPPPPPP
# T2: Peptide 18 (cyno)
# T2 peptide: QQQPPPPPPPPPPPP
# T3: Peptide 31 (cyno)
# T3 peptide: LPQPQPPPPPPPPPP
# T4: Peptide 25 (cyno)
# T4 peptide: QQPPPPPPPPPPPPQ
# T5: Peptide 26 (cyno)
# T5 construct: the array is said to hold 15-mers
# T5 peptide: QPPPPPPPPPPPPQL
# T6: Peptide 24 (cyno)
# T6 peptide: QQQQQQQQQPPPPPP
# T7: Peptide 2 (human, cyno)
# T7 peptide: QQQQQQQPPPPPPPP
# T8: Peptide 10 (human)
# T8 peptide: QPLLPQPQPPPPPPP
# T9: Peptide 16 (human)
# T9 peptide: PQPPPPPPPPPPGPA
# T10: Peptide 17 (human)
# T10 peptide: QPPPPPPPPPPGPAV
# T11: Peptide 13 (human)
# T11 peptide: LPQPQPPPPPPPPPP
# T12: Peptide 8 (human)
# T12 peptide: QAQPLLPQPQPPPPP
# T13: Peptide 7 (human)
# T13 peptide: PQAQPLLPQPQPPPP
# T14: Peptide 3 (human, cyno)
# T14 peptide: QQQQQQPPPPPPPPP
# T15: Peptide 1 (human, cyno)
# T15 peptide: QQQQQQQQPPPPPPP
# T16: Peptide 12 (human)
# T16 peptide: LLPQPQPPPPPPPPP
# T17: Peptide 9 (human)
# T17 peptide: AQPLLPQPQPPPPPP
# T18: Peptide 11 (human)
# T18 peptide: PLLPQPQPPPPPPPP
# T19: Epitope 1 (human, cyno)
# T19 peptide: QQQQPPPPPPPPPPP
# T20: Peptide 21 (cyno)
# T20 peptide: AQPMLPQPQPPPPPP
# T21: Peptide 29 (cyno)
# T21 peptide: PMLPQPQPPPPPPPP
# T22: Peptide 30 (cyno)
# T22 peptide: MLPQPQPPPPPPPPP
# T23: Peptide 28 (cyno)
# T23 peptide: QPMLPQPQPPPPPPP
# B1: ATL_0005335 (antibody, V domains shown)
# VH: EVQLVESGGGLVKPGGSLRLSCAASGFTFNKAWMNWVRQAPGKGLEWVGRIKSGIDGGTTDYAAPVQGRFTISRDDSKNTVYLQMNSLNTEDTAVYYCIPPPYYYYYGLDVWGQGTTVTVSS
# VL: QSALTQPASVSGSPGQSITISCTGTSSDIGSYNLVSWYQQHPGNAPKPLIYEGSKRPSGVSARFSGSKSGNTASLTISGLQPEDEADYYCSSYAGFNTLVFGGGTKVTVL
# notes: human IgG1; also called ATL_5335
# B2: ATL_0005331 (antibody, V domains shown)
# VH: B1 VH
# VL: QSALTQPRSVSGSPGQSITISCTGTSSDVGSYNLVSWFQQHPGKAPKLIIYEVNKRPSGVPDRFSGSKSGNTASLTVSGLQAEDEADYYCGSYAGTNNVFGTGTKLTVL
# notes: human IgG1; also called ATL_5331; Human IgG1 ATL_0005331
# Legend:
# Peptide 4 [1] = target: T1, Peptide 4; experiment: peptide microarray; Sp C2; IgG 10 µg/ml
# Peptide 18 [2] = target: T2, Peptide 18; experiment: peptide microarray; Sp C2; IgG 10 µg/ml
# Peptide 31 [3] = target: T3, Peptide 31; experiment: peptide microarray; Sp C2; IgG 10 µg/ml
# Peptide 25 [4] = target: T4, Peptide 25; experiment: peptide microarray; Sp C2; IgG 10 µg/ml
# Peptide 26 [5] = target: T5, Peptide 26; experiment: peptide microarray; Sp C2; IgG 10 µg/ml
# Peptide 24 [6] = target: T6, Peptide 24; experiment: peptide microarray; Sp C2; IgG 10 µg/ml
# Peptide 4 [7] = target: T1, Peptide 4; experiment: peptide microarray; Sp H; IgG 1 µg/ml
# Peptide 2 [8] = target: T7, Peptide 2; experiment: peptide microarray; Sp H; IgG 1 µg/ml
# Peptide 10 = target: T8, Peptide 10; experiment: peptide microarray; Sp H; IgG 1 µg/ml
# Peptide 16 = target: T9, Peptide 16; experiment: peptide microarray; Sp H; IgG 1 µg/ml
# Peptide 17 = target: T10, Peptide 17; experiment: peptide microarray; Sp H; IgG 1 µg/ml
# Peptide 13 = target: T11, Peptide 13; experiment: peptide microarray; Sp H; IgG 1 µg/ml
# Peptide 8 = target: T12, Peptide 8; experiment: peptide microarray; Sp H; IgG 1 µg/ml
# Peptide 7 = target: T13, Peptide 7; experiment: peptide microarray; Sp H; IgG 1 µg/ml
# Peptide 3 [9] = target: T14, Peptide 3; experiment: peptide microarray; Sp H; IgG 1 µg/ml
# Peptide 1 [10] = target: T15, Peptide 1; experiment: peptide microarray; Sp H; IgG 1 µg/ml
# Peptide 12 = target: T16, Peptide 12; experiment: peptide microarray; Sp H; IgG 1 µg/ml
# Peptide 9 = target: T17, Peptide 9; experiment: peptide microarray; Sp H; IgG 1 µg/ml
# Peptide 11 = target: T18, Peptide 11; experiment: peptide microarray; Sp H; IgG 1 µg/ml
# Epitope 1 [11] = target: T19, Epitope 1; experiment: peptide microarray; Sp H; IgG 1 µg/ml
# Peptide 4 [12] = target: T1, Peptide 4; experiment: peptide microarray; Sp C1; IgG 10 µg/ml
# Peptide 2 [13] = target: T7, Peptide 2; experiment: peptide microarray; Sp C1; IgG 10 µg/ml
# Peptide 18 [14] = target: T2, Peptide 18; experiment: peptide microarray; Sp C1; IgG 10 µg/ml
# Peptide 21 [15] = target: T20, Peptide 21; experiment: peptide microarray; Sp C1; IgG 10 µg/ml
# Peptide 3 [16] = target: T14, Peptide 3; experiment: peptide microarray; Sp C1; IgG 10 µg/ml
# Peptide 1 [17] = target: T15, Peptide 1; experiment: peptide microarray; Sp C1; IgG 10 µg/ml
# Epitope 1 [18] = target: T19, Epitope 1; experiment: peptide microarray; Sp C1; IgG 10 µg/ml
# Peptide 4 [19] = target: T1, Peptide 4; experiment: peptide microarray; Sp C2; IgG 1 µg/ml
# Peptide 2 [20] = target: T7, Peptide 2; experiment: peptide microarray; Sp C2; IgG 1 µg/ml
# Peptide 18 [21] = target: T2, Peptide 18; experiment: peptide microarray; Sp C2; IgG 1 µg/ml
# Peptide 31 [22] = target: T3, Peptide 31; experiment: peptide microarray; Sp C2; IgG 1 µg/ml
# Peptide 29 = target: T21, Peptide 29; experiment: peptide microarray; Sp C2; IgG 1 µg/ml
# Peptide 21 [23] = target: T20, Peptide 21; experiment: peptide microarray; Sp C2; IgG 1 µg/ml
# Peptide 25 [24] = target: T4, Peptide 25; experiment: peptide microarray; Sp C2; IgG 1 µg/ml
# Peptide 26 [25] = target: T5, Peptide 26; experiment: peptide microarray; Sp C2; IgG 1 µg/ml
# Peptide 3 [26] = target: T14, Peptide 3; experiment: peptide microarray; Sp C2; IgG 1 µg/ml
# Peptide 1 [27] = target: T15, Peptide 1; experiment: peptide microarray; Sp C2; IgG 1 µg/ml
# Peptide 30 = target: T22, Peptide 30; experiment: peptide microarray; Sp C2; IgG 1 µg/ml
# Peptide 24 [28] = target: T6, Peptide 24; experiment: peptide microarray; Sp C2; IgG 1 µg/ml
# Peptide 28 = target: T23, Peptide 28; experiment: peptide microarray; Sp C2; IgG 1 µg/ml
# Epitope 1 [29] = target: T19, Epitope 1; experiment: peptide microarray; Sp C2; IgG 1 µg/ml
binder,measurement,setting,value
B1,corrected fluorescence intensity,Peptide 4 [1],10000
same,corrected fluorescence intensity,Peptide 18 [2],8370
same,corrected fluorescence intensity,Peptide 31 [3],7740
same,corrected fluorescence intensity,Peptide 25 [4],3300
same,corrected fluorescence intensity,Peptide 26 [5],1910
same,corrected fluorescence intensity,Peptide 24 [6],3260
same,corrected fluorescence intensity,Peptide 4 [7],409
same,corrected fluorescence intensity,Peptide 2 [8],417
same,corrected fluorescence intensity,Peptide 10,845
same,corrected fluorescence intensity,Peptide 16,77.5
same,corrected fluorescence intensity,Peptide 17,0
same,corrected fluorescence intensity,Peptide 13,1130
same,corrected fluorescence intensity,Peptide 8,434
same,corrected fluorescence intensity,Peptide 7,0
same,corrected fluorescence intensity,Peptide 3 [9],626
same,corrected fluorescence intensity,Peptide 1 [10],0
same,corrected fluorescence intensity,Peptide 12,932
same,corrected fluorescence intensity,Peptide 9,622
same,corrected fluorescence intensity,Peptide 11,936
same,corrected fluorescence intensity,Epitope 1 [11],293
same,corrected fluorescence intensity,Peptide 4 [12],4320
same,corrected fluorescence intensity,Peptide 2 [13],2230
same,corrected fluorescence intensity,Peptide 18 [14],4510
same,corrected fluorescence intensity,Peptide 21 [15],2740
same,corrected fluorescence intensity,Peptide 3 [16],3540
same,corrected fluorescence intensity,Peptide 1 [17],0
same,corrected fluorescence intensity,Epitope 1 [18],3340
same,corrected fluorescence intensity,Peptide 4 [19],1110
same,corrected fluorescence intensity,Peptide 2 [20],1160
same,corrected fluorescence intensity,Peptide 18 [21],1270
same,corrected fluorescence intensity,Peptide 31 [22],1000
same,corrected fluorescence intensity,Peptide 29,523
same,corrected fluorescence intensity,Peptide 21 [23],168
same,corrected fluorescence intensity,Peptide 25 [24],507
same,corrected fluorescence intensity,Peptide 26 [25],128
same,corrected fluorescence intensity,Peptide 3 [26],1220
same,corrected fluorescence intensity,Peptide 1 [27],990
same,corrected fluorescence intensity,Peptide 30,772
same,corrected fluorescence intensity,Peptide 24 [28],562
same,corrected fluorescence intensity,Peptide 28,421
same,corrected fluorescence intensity,Epitope 1 [29],1400
B2,corrected fluorescence intensity,Peptide 4 [1],4870
same,corrected fluorescence intensity,Peptide 18 [2],4500
same,corrected fluorescence intensity,Peptide 31 [3],5480
same,corrected fluorescence intensity,Peptide 25 [4],947
same,corrected fluorescence intensity,Peptide 26 [5],1040
same,corrected fluorescence intensity,Peptide 24 [6],994
same,corrected fluorescence intensity,Peptide 4 [7],238
same,corrected fluorescence intensity,Peptide 2 [8],197
same,corrected fluorescence intensity,Peptide 10,274
same,corrected fluorescence intensity,Peptide 16,90.2
same,corrected fluorescence intensity,Peptide 17,85.5
same,corrected fluorescence intensity,Peptide 13,373
same,corrected fluorescence intensity,Peptide 8,260
same,corrected fluorescence intensity,Peptide 7,0
same,corrected fluorescence intensity,Peptide 3 [9],276
same,corrected fluorescence intensity,Peptide 1 [10],131
same,corrected fluorescence intensity,Peptide 12,374
same,corrected fluorescence intensity,Peptide 9,229
same,corrected fluorescence intensity,Peptide 11,280
same,corrected fluorescence intensity,Epitope 1 [11],291
same,corrected fluorescence intensity,Peptide 4 [12],3150
same,corrected fluorescence intensity,Peptide 2 [13],1760
same,corrected fluorescence intensity,Peptide 18 [14],3100
same,corrected fluorescence intensity,Peptide 21 [15],1030
same,corrected fluorescence intensity,Peptide 3 [16],2290
same,corrected fluorescence intensity,Peptide 1 [17],378
same,corrected fluorescence intensity,Epitope 1 [18],4160
same,corrected fluorescence intensity,Peptide 4 [19],546
same,corrected fluorescence intensity,Peptide 2 [20],462
same,corrected fluorescence intensity,Peptide 18 [21],474
same,corrected fluorescence intensity,Peptide 31 [22],294
same,corrected fluorescence intensity,Peptide 29,156
same,corrected fluorescence intensity,Peptide 21 [23],154
same,corrected fluorescence intensity,Peptide 25 [24],206
same,corrected fluorescence intensity,Peptide 26 [25],141
same,corrected fluorescence intensity,Peptide 3 [26],548
same,corrected fluorescence intensity,Peptide 1 [27],259
same,corrected fluorescence intensity,Peptide 30,256
same,corrected fluorescence intensity,Peptide 24 [28],146
same,corrected fluorescence intensity,Peptide 28,152
same,corrected fluorescence intensity,Epitope 1 [29],379
